For seven substances, Kd, fold reduction of affinity against wild-type AC9 and Ki results are on record in article PMC7275706.

The target in assay [1] is APS 609-621 (Rattus norvegicus) (UniProt Q9Z200). As to conditions: cited from earlier work.
Assay [2] concerns the target Shc 423-435 (Homo sapiens) (UniProt P29353). As to conditions: cited from earlier work.
The target in assay [3] is Toxoplasma gondii ERK7 kinase domain, ERK7_(2–358) (Toxoplasma gondii). The assay is described as follows: fluorescence polarisation; competition: unlabeled AC9 constructs titrated against 10 nM fluorescein-AC9 and 100 nM ERK7; single-site inhibition, global fit.
The target in assay [4] is Toxoplasma gondii ERK7 kinase domain, ERK7_(2–358). Kind of assay: fluorescence polarisation competition. As to conditions: competition with fluorescein-labeled wild-type AC9. (In fluorescence polarisation assays a small probe gives low polarisation when free and higher when bound to something large.)
The target in assay [5] is fluorescein-labeled AC9_(419–452) with an additional N-terminal Cys (Toxoplasma gondii). The assay is described as follows: fluorescence polarisation; ERK7 2–358 serially diluted against 10 nM fluorescein-AC9 419–452, 20 μL in 384-well plate; single-site binding, global fit of three replicate experiments.
Assay [6] deals with fluorescein-labeled synthetic MEK2_(4–16) peptide (rat) (rat) (UniProt P36506). The assay is described as follows: fluorescence polarisation; ERK7 titrated against 100 nM fluorescein-labeled synthetic MEK2 4–16 peptide; single-site binding, global fit.

Sequence of Grb2 SH2 (P62993 57-155): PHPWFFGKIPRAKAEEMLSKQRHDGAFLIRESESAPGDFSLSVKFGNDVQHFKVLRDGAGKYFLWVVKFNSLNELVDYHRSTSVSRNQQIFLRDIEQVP

Broadly, the Kd is the equilibrium constant for the complex coming apart. In the case of Cbl TKB (from UniProt P22681), the Kd in assay [1] is 43 nM.
Consider Grb2 SH2 (from UniProt P62993), for which the Kd in assay [2] is 18 nM.
AC9_(R421A/K423A) (domain or fragment) had a fold reduction of affinity against wild-type AC9 in assay [3] of 4 fold.
What is called Ki is the equilibrium dissociation constant of an inhibitor or competing ligand from its target. A low value points to higher affinity. AC9 wild type R421A; K423A had a Ki in assay [4] of 63 nM.
For WT AC9_(401–452) (domain or fragment), the inhibitory constant (Ki) in assay [3] is 15 nM.
For “Toxoplasma gondii ERK7 kinase domain, ERK7_(2–358) (domain or fragment)”, the values for the Kd in assay [5] and in assay [6] were 34 nM and 12000 nM, respectively.
In the case of AC9_(W438A) (domain or fragment), the Ki in assay [3] came out at 1600 nM.
